Patent US20020182701

Target: T1, Met-Gly-Met-Met peptide substrate
T1 chain: MGMM

B1: N-terminal HA-tagged wild-type yeast MetAP2 (protein)
chain: YPYDVPDYAMTDAEIENSPASDLKELNLENEGVEQQDQAKADESDPVESKKKKNKKKKKKKSNVKKIELLFPDGKYPEGAWMDYHQDFNLQRTTDEESRYLKRDLERAEHWNDVRKGAEIHRRVRRAIKDRIVPGMKLMDIADMIENTTRKYTGAENLLAMEDPKSQGIGFPTGLSLNHCAAHFTPNAGDKTVLKYEDVMKVDYGVQVNGNIIDSAFTVSFDPQYDNLLAAVKDATYTGIKEAGIDVRLTDIGEAIQEVMESYEVEINGETYQVKPCRNLCGHSIAPYRIHGGKSVPIVKNGDTTKMEEGEHFAIETFGSTGRGYVTAGGEVSHYARSAEDHQVMPTLDSAKNLLKTIDRNFGTLPFCRRYLDRLGQEKYLFALNNLVRHGLVQDYPPLNDIPGSYTAQFEHTILLHAHKKEVVSKGDDYGKMRFQMASSLGIILL
Specific activity (MetAP activity on 2 mM Met-Gly-Met-Met): Specific activity for the wild-type MetAP2 was 11±0.5 U/mg

B2: N-terminal HA-tagged yeast MetAP2 (H174A) (protein)
chain: YPYDVPDYAMTDAEIENSPASDLKELNLENEGVEQQDQAKADESDPVESKKKKNKKKKKKKSNVKKIELLFPDGKYPEGAWMDYHQDFNLQRTTDEESRYLKRDLERAEHWNDVRKGAEIHRRVRRAIKDRIVPGMKLMDIADMIENTTRKYTGAENLLAMEDPKSQGIGFPTGLSLNHCAAAFTPNAGDKTVLKYEDVMKVDYGVQVNGNIIDSAFTVSFDPQYDNLLAAVKDATYTGIKEAGIDVRLTDIGEAIQEVMESYEVEINGETYQVKPCRNLCGHSIAPYRIHGGKSVPIVKNGDTTKMEEGEHFAIETFGSTGRGYVTAGGEVSHYARSAEDHQVMPTLDSAKNLLKTIDRNFGTLPFCRRYLDRLGQEKYLFALNNLVRHGLVQDYPPLNDIPGSYTAQFEHTILLHAHKKEVVSKGDDYGKMRFQMASSLGIILL
catalytic activity in vitro: displayed no detectable activity against a peptide substrate (MGMM)
